# Laboratory results from patent publication US20200325187A1 (Genentech, published 2020).
# Columns and labels:
# Experiment in all cases: spot phage ELISA
# hVEGF-A (8-109) [1] = biological target: T1, hVEGF-A (8-109) (human, UniProt P15692 214-315)
# T1 sequence (looked up): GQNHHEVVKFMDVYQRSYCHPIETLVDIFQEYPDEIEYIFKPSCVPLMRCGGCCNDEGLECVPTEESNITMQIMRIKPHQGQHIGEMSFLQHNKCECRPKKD
# hVEGF-A (8-109) [2] = biological target: T1, hVEGF-A (8-109); remark: listed apart in the source
# Procedure: After four rounds of binding selection, individual phage clones were picked and inoculated into 450 μl 2YT media containing 50 µg/ml Carbenecillin and M13-KO7 helper phage in 96-well blocks, which were grown at 37° C. overnight. […] The plates were washed and bound phage was detected with anti-M13-HRP followed by TMB substrate. In these assays, phage binding to BSA alone was tested in parallel to assess background binding. […] Positive clones were subjected to DNA sequence analysis.
# LRP6 E1E2 protein = biological target: T2, LRP6 E1E2 protein (human, UniProt O75581 20-630, limits assumed)
# T2 construct: domain: E1E2
# T2 sequence (looked up): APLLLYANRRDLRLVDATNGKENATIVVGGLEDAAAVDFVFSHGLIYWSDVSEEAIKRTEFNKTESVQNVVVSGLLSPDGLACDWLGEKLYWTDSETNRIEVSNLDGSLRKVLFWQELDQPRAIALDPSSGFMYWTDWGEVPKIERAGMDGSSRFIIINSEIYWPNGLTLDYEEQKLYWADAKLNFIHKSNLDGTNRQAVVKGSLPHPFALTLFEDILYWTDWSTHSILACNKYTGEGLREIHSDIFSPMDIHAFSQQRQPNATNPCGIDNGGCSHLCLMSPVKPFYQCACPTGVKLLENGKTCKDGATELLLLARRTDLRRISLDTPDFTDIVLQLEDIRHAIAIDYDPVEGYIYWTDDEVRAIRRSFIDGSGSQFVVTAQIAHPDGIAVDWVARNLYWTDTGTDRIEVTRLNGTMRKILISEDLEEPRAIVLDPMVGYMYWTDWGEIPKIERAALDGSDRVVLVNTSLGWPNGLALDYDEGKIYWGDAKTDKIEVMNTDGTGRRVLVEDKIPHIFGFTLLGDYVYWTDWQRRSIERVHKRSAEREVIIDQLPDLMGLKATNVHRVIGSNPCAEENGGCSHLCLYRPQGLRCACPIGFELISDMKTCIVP
Binder,binding result (hVEGF-A (8-109) [1]),ELISA (hVEGF-A (8-109) [2]),S/N vs BSA (hVEGF-A (8-109) [2]),other results
GCNIMLPFWGCGRDFECLAGCVCQYYQSCGWDY (designed binder) [9.54.90-3x9],binds,,,
GCNIMLPFWGCGRDFECLAGCVCQYYQSCGPHQ (designed binder) [9.54.90-3x33],binds,,,
GCNIMLPFWGCGRDFECLAGCVCQYYQSCGYLS (designed binder) [9.54.90-3x88],binds,,,
GCNIMLPFWGCGRDFECLAGCVCQYYQSCGEHK (designed binder) [9.54.90-3x42],binds,,,
GCNIMLPFWGCGRDFECLAGCVCQYYQSCGWPH (designed binder) [9.54.90-3x13],binds,,,
GCNIMLPFWGCGRDFECLAGCVCQYYQSCGTFQ (designed binder) [9.54.90-3x10],binds,,,
GCNIMLPFWGCGRDFECLAGCVCQYYQSCGDLV (designed binder) [9.54.90-3x91],binds,,,
GCGETVFEQFLWCKQDSDCLAGCVCGPNGFCG (designed binder) [VEGF_CKP2],,3.2,48.1,
GCRSVNKICKQDSDCLAGCVCGSSRNCG (designed binder) [LRP6_CKP4],,,,ELISA (LRP6 E1E2 protein): 2.82; S/N vs BSA (LRP6 E1E2 protein): 25.4
GCASSNSIRQGWCKQDSDCLAGCVCGPKSNCG (designed binder) [LRP6_CKP10],,,,ELISA (LRP6 E1E2 protein): 3.29; S/N vs BSA (LRP6 E1E2 protein): 37.4
GCKKWQWWYMCKQDSDCLAGCVCYPWTECG (designed binder) [VEGF_CKP4],,2.6,35.3,
GCHMMYDYCKQDSDCLAGCVCEMYDACG (designed binder) [VEGF_CKP3],,3.1,42.9,
GCRSNRIRCKQDSDCLAGCVCYGHGDCG (designed binder) [LRP6_CKP11],,,,ELISA (LRP6 E1E2 protein): 2.65; S/N vs BSA (LRP6 E1E2 protein): 36.8
GCETDWYPHQIDCKQDSDCLAGCVCGPNGFCG (designed binder) [VEGF_CKP1],,0.9,16.9,
GCDVLQPYWGCGPDIDCLSNCICHWYNSCGRL (designed binder) [63.12.12.M5L.2x21],binds,,,
GCDVLQPYWGCGPDIDCLSNCICHWYNSCGEQ (designed binder) [63.12.12.M5L.2x12],binds,,,
GCDVLQPYWGCGPDIDCLSNCICHWYNSCGPL (designed binder) [63.12.12.M5L.2x48],binds,,,
GCDVLQPYWGCGPDIDCLSNCICHWYNSCGSL (designed binder) [63.12.12.M5L.2x29],binds,,,
GCDVLQPYWGCGPDIDCLSNCICHWYNSCGQF (designed binder) [63.12.12.M5L.2x69],binds,,,
GCDVLQPYWGCGPDIDCLSNCICHWYNSCGWK (designed binder) [63.12.12.M5L.2x77],binds,,,
GCDVLQPYWGCGPDIDCLSNCICHWYNSCGDE (designed binder) [63.12.12.M5L.2x25],binds,,,
GCDVLQPYWGCGPDIDCLSNCICHWYNSCGPT (designed binder) [63.12.12.M5L.2x30],binds,,,
GCDVLQPYWGCGPDIDCLSNCICHWYNSCGRT (designed binder) [63.12.12.M5L.2x2],binds,,,
GCRGNIIKCKQDSDCLAGCVCNESRGCG (designed binder) [LRP6_CKP8],,,,ELISA (LRP6 E1E2 protein): 3.23; S/N vs BSA (LRP6 E1E2 protein): 37.6

Binder,binding result (hVEGF-A (8-109) [1]),ELISA (hVEGF-A (8-109) [2]),S/N vs BSA (hVEGF-A (8-109) [2]),other results
GCRTNRVKGGCKQDSDCLAGCVCGPNGFCG (designed binder) [LRP6_CKP1],,,,ELISA (LRP6 E1E2 protein): 3.23; S/N vs BSA (LRP6 E1E2 protein): 45.5
GCRANRVSGRCKQDSDCLAGCVCGPNGFCG (designed binder) [LRP6_CKP18],,,,ELISA (LRP6 E1E2 protein): 1.67; S/N vs BSA (LRP6 E1E2 protein): 18.3
GCQLMHPFWGCKQDSDCLAGCVCHWYRSCG (designed binder) [VEGF_CKP8],,3.9,59.4,
GCNIMLPFWGCSRDFDCLAGCVCQYYQSCG (designed binder) [VEGF_CKP9.54.44],,2.4,34.4,
GCNIMLPFWGCGWDQFCLAGCVCQYYQSCG (designed binder) [VEGF_CKP9.54.51],,2.5,44.5,
GCNIMLPFWGCQADYACLAGCVCQYYQSCG (designed binder) [VEGF_CKP9.54.14],,2.5,23.5,
GCNIMLPFWGCSGDFACLAGCVCQYYQSCG (designed binder) [VEGF_CKP9.54.64],,2.2,22.4,
GCNIMLPFWGCGYDLQCLAGCVCQYYQSCG (designed binder) [VEGF_CKP9.54.87],,2.4,26.1,
GCNIMLPFWGCGTNFLCLAGCVCQYYQSCG (designed binder) [VEGF_CKP9.54.31],,2.3,32.5,
GCNIMLPFWGCGWSMDCLAGCVCQYYQSCG (designed binder) [VEGF_CKP9.54.76],,2.7,42.2,
GCQLMQPFWGCKQDSDCLAGCVCRWYHSCG (designed binder) [VEGF_CKP9.L5.43],,0.9,13.6,
GCNIMLPFWGCNRDFLCLAGCVCQYYQSCG (designed binder) [VEGF_CKP9.54.48],,2.5,34.9,
GCNIMLPFWGCGKDFHCLAGCVCQYYQSCG (designed binder) [VEGF_CKP9.54.56],,2.3,35.8,
GCNIMLPFWGCGVDYLCLAGCVCQYYQSCG (designed binder) [VEGF_CKP9.54.16],,2.4,30.8,
GCNIMLPFWGCGPELNCLAGCVCQYYQSCG (designed binder) [VEGF_CKP9.54.12],,2.4,38.8,
GCNIMLPFWGCGKELNCLAGCVCQYYQSCG (designed binder) [VEGF_CKP9.54.69],,2.5,21.7,
GCQLMQPFWGCKQDSDCLAGCVCRWYNSCG (designed binder) [VEGF_CKP9.L5.7],,1.4,18.9,
GCPRILMRCKQDSDCLAGCVCGPNGFCG (also called wild type EETI-II) [EETI-II],,0.01,1.11,
GCVNRVRGCKQDSDCLAGCVCSGGRDCG (designed binder) [LRP6_CKP2],,,,ELISA (LRP6 E1E2 protein): 3.41; S/N vs BSA (LRP6 E1E2 protein): 41.6
GCPAIQNWKEHPCKQDSDCLAGCVCSWWPSLCG (designed binder) [VEGF_CKP5],,1.9,28.4,
GCRSGNTIRKRECKQDSDCLAGCVCGGPGGCG (designed binder) [LRP6_CKP9],,,,ELISA (LRP6 E1E2 protein): 2.97; S/N vs BSA (LRP6 E1E2 protein): 37.6
GCMNHVKARRCKQDSDCLAGCVCGPNGFCG (designed binder) [LRP6_CKP3],,,,ELISA (LRP6 E1E2 protein): 2.93; S/N vs BSA (LRP6 E1E2 protein): 40.2
GCVNKIKGCKQDSDCLAGCVCGVEGRCG (designed binder) [LRP6_CKP5],,,,ELISA (LRP6 E1E2 protein): 3.04; S/N vs BSA (LRP6 E1E2 protein): 35.7
GCVSNRVNKGCKQDSDCLAGCVCGPNGFCG (designed binder) [LRP6_CKP7],,,,ELISA (LRP6 E1E2 protein): 3.3; S/N vs BSA (LRP6 E1E2 protein): 29
